Drawing on FireProtDB (doi:10.1016/j.jmb.2005.06.006), this text covers denaturant m value and unfolding free energy for 1 protein.

Where “and” joins values, the source holds several entries; their conditions need not be identical. Equal values may be shown once.

The conditions of the data set: Escherichia coli (strain K12); pH 7.8; 25 °C; Urea; CD; Potassium phosphate 10 mM; transition: 3; whole UniProt chain shown.

B1: Tryptophan synthase alpha chain wild type, P0A877 (protein)
chain: MERYESLFAQLKERKEGAFVPFVTLGDPGIEQSLKIIDTLIEAGADALELGIPFSDPLADGPTIQNATLRAFAAGVTPAQCFEMLALIRQKHPTIPIGLLMYANLVFNKGIDEFYAQCEKVGVDSVLVADVPVEESAPFRQAALRHNVAPIFICPPNADDDLLRQIASYGRGYTYLLSRAGVTGAENRAALPLNHLVAKLKEYNAAPPLQGFGISAPDQVKAAIDAGAAGAISGSAIVKIIEQHINEPEKMLAALKVFVQPMKAATRS
In the case of B1, the denaturant m value was 2.29 kcal/mol/M and 1.2 kcal/mol/M; the unfolding free energy was 6.13 kcal/mol and 4.72 kcal/mol.
